Laboratory results reported in the supplement of paper PMC10567573.
± gives the standard deviation.

Assay: protein stability index of a GFP-peptide fusion (GPS, HEK-293T) (PSI 1-6); higher = more stable
[1] = treatment: DMSO, c terminus: a fixed tail appended
[2] = treatment: MLN4924 1 uM, 8 h, c terminus: a fixed tail appended
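Note: 24-mer peptide tiles fused after GFP, lentivirally expressed, FACS-sorted into six equal bins by GFP/DsRed ratio, decoded by Illumina sequencing, PSI is the read-weighted mean bin number.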

Sequence	protein stability index [1]	protein stability index [2]	protein stability index (treatment: DMSO, c terminus: native)	protein stability index (treatment: MLN4924 1 uM, 8 h, c terminus: native)
FAYKDEYEKFKLYLTIILILISFT [TMEM120A]	2.83 ± 0.35	2.46 ± 0.52	–	–
PKWGWEQLEVTCTPYLKETLNSIW [POMT2]	2.49 ± 0.58	2.12 ± 0.61	–	–
QYTVPGTEGVTQLKLTVVEDVTVG [ZFYVE21]	3.86 ± 0.19	3.98 ± 0.41	–	–
ATTYKHGVLTRKTHADMDGKRTPR [PSD2]	4.44 ± 0.16	4.63 ± 0.26	–	–
KILVGNRLHLAFKRQVPREQAQAY [RAB40A]	2.48 ± 0.11	2.56 ± 0.19	–	–
CCAAPGPHVALAVRYNRVGILRRI [ANKRD9]	2.37 ± 0.26	2.49 ± 0.2	–	–
TPLHIAAQNNCPAIMNALIEAGAH [FEM1A]	3.07 ± 0.2	3.13 ± 0.23	–	–
KHFCPRTPVILVGCQLDLRYADLE [RHOBTB1]	2.35 ± 0.49	2.19 ± 0.33	–	–
RILVGNRLHLAFKRQVPTEQARAY [RAB40C]	2.29 ± 0.26	2.56 ± 0.27	–	–
CSECGESFSRSSRLMSHQRTHTG [ZNF263]	–	–	3.02 ± 0.6	3.53 ± 0.95
LALIDYLTQKRSQLVKKLNDSDHQ [VPS39]	2.51 ± 0.14	2.77 ± 0.69	–	–
KISVPRDVMLEELSLLTNRGSKMF [MYOZ1]	2.8 ± 0.28	2.76 ± 0.35	–	–
LQLGDGGGCTVGVAGEGVRRKGEM [TRIM15]	4.71 ± 0.17	3.84 ± 0.45	–	–
SYHDGYGEALGRDHSEHLSGSSYR [RBMY1A1]	4 ± 0.19	4.12 ± 0.35	–	–
ALQEKLWNVAAPLYLKQSDLASAA [INTS4]	2.31 ± 0.17	2.27 ± 0.3	–	–
TDEFRELRATVERMGLMKANHVFF [FADS1]	2.48 ± 0.56	2.12 ± 0.21	–	–
GHGYDSKKQQELTAAVLGLICEGL [ZBED1]	2.34 ± 0.31	2.09 ± 0.29	–	–
DLIDVREVMERDAKDYADSIHAIF [RAB22A]	3.16 ± 0.042	3.23 ± 0.38	–	–
LFPASPTREAHRESSVPVTPSVPP [FBF1]	4.88 ± 0.19	4.84 ± 0.11	–	–
HRAHHKFSETHADPHNSRRGFFFS [SCD]	3.08 ± 0.18	3.05 ± 0.3	–	–
LAEYCIKTKVPSNDNSSDLLYDDL [UBE2R2]	4.13 ± 0.17	4.19 ± 0.32	–	–
VPNAKKLRRKEQLWEKLAKQGELP [NOP53]	3.35 ± 0.33	3.51 ± 0.39	–	–

Sequence	protein stability index [1]	protein stability index [2]	protein stability index (treatment: DMSO, c terminus: native)	protein stability index (treatment: MLN4924 1 uM, 8 h, c terminus: native)
LFSDPRSTRLTRIHLREDLVQDQD [ZER1]	4.53 ± 0.24	4.55 ± 0.09	–	–
AAARGGQCPGLGPAPTPTPPGRLG [ZBED3]	4.36 ± 0.24	4.63 ± 0.34	–	–
SEGELGGPSEPGGTHPEDHQGHSD [RHOBTB2]	5.54 ± 0.32	5.49 ± 0.29	–	–
LLSDVRFVLGKGRGAAAAGGPQRI [BTBD1]	2.85 ± 0.63	3.04 ± 0.27	–	–
SDLFDLMGSSQATMTSSQSMNFSM [CLINT1]	2.42 ± 0.22	2.66 ± 0.24	–	–
PRLHIVKADENNGFGSKNTAFCTH [TBX5]	3.43 ± 0.12	3.28 ± 0.049	–	–
DRSVQRLLATRIAVYLMTFLIVTV [TMEM175]	3.15 ± 0.3	3.31 ± 0.31	–	–
LPEDDGLEQDLQQVMVSGPNLNET [ARFIP2]	5.32 ± 0.32	5.43 ± 0.13	–	–
REAQQYSEALASTRILKHSPESSR [GLIPR2]	4.92 ± 0.27	4.92 ± 0.3	–	–
GLSESSGPHTISNQNNYRLLSCGK [ACSBG2]	4.55 ± 0.41	4 ± 0.28	–	–
QPRKGGADWLGLKDEDLDLFPASP [FBF1]	4.71 ± 0.1	4.79 ± 0.17	–	–
GSNDRVQGVISQLEDTCKTIEECC [TRIM55]	4.71 ± 0.098	4.77 ± 0.31	–	–
HDTEIRKVHMKDVMSALWVSGLDS [GAN]	2.78 ± 0.29	2.75 ± 0.4	–	–
LSRKLMQLQHEKAELEQHLEQEQE [CCDC6]	5.27 ± 0.27	5.02 ± 0.2	–	–
FLQKVAQMPQEEVELLPPAPKGKG [BRD3]	4.24 ± 0.17	4.32 ± 0.13	–	–
LQQAQAQFRMAQEEARRNRLMRDM [SMG5]	3.89 ± 0.22	4.11 ± 0.27	–	–
VLSSTPDHSFSLELGSEVDITEGD [ATF4]	5.32 ± 0.43	5.44 ± 0.11	–	–
RMLVAASWACAFTNALTHTVAMST [OR3A1]	3.07 ± 0.24	3.18 ± 0.5	–	–
KLQGLENWGQDPGVSANASKAWHQ [PBXIP1]	3.27 ± 0.27	3.37 ± 0.28	–	–
GSAPPRATPGGGTGEAARPHKGLN [PCDHGC5]	5.19 ± 0.34	5.26 ± 0.32	–	–
HVSPPPSADPARGLPRSRDCRVDL [PDLIM4]	4.76 ± 0.14	4.73 ± 0.13	–	–
NTLSVSYKKGRMMKDISNLEENDE [SLC6A17]	4.91 ± 0.3	5.08 ± 0.23	–	–

Sequence	protein stability index [1]	protein stability index [2]	protein stability index (treatment: DMSO, c terminus: native)	protein stability index (treatment: MLN4924 1 uM, 8 h, c terminus: native)
ISNIFSNYFSAMYSSEDSTLASVP [ELF3]	2.2 ± 0.25	2.1 ± 0.18	–	–
NLLLAKGANINAFDKKDRRALHWA [ANKRD44]	2.32 ± 0.34	2.5 ± 0.17	–	–
GAGIIVTEAGGVLMDVTGGPFDLM [IMPA1]	2.28 ± 0.4	2.48 ± 0.39	–	–
MEVLPCSRVAHIERTRKPYNNDID [GALNT9]	2.46 ± 0.26	2.44 ± 0.28	–	–
GRGDEASEEGQNGSSPKSKTKWTK [ADD1]	5.22 ± 0.16	5.36 ± 0.36	–	–
DNAPVFTLPEYRVSVPENLPVGTQ [PCDHGA10]	4.54 ± 0.17	4.45 ± 0.26	–	–
LEEGDELQLAIPRENAQISLDGDV [TNFSF13B]	5.43 ± 0.083	5.29 ± 0.12	–	–
EVLREQAGGDATENFEDVGHSTDA [CYB5A]	5.57 ± 0.43	5.67 ± 0.19	–	–
EPDANFPQFLHEGLSKPVYVINWF [FAM104B]	2.37 ± 0.43	2.48 ± 0.36	–	–
TEIANCSLKVKFFDLERENACATK [PLD5]	–	3.92 ± 0.4	–	–
AIGVSISLSSIATCVYIAEIAPQH [SLC2A12]	3.17 ± 0.13	3.34 ± 0.38	–	–
TFEQAIQAASRIIRNEQFAIRRFQ [CDC25B]	2.38 ± 0.48	2.01 ± 0.32	–	–
DKFIEDYLLPDTCFRMQINHAIDI [OAS1]	2.59 ± 0.36	2.17 ± 0.44	–	–
FPETTFISVTAYQNPQITQLKIAA [TBX6]	2.58 ± 0.72	2.73 ± 0.59	–	–
YETKKHLVQLPNINRVSTCYSEEI [PPEF2]	3.33 ± 0.32	3.23 ± 0.53	–	–
LAIQEMVSLTSPSAPPTSRTSSGN [PPFIA4]	3.88 ± 0.19	4.05 ± 0.17	–	–
WLYCYDPVMDVWARKQDMNTKRAI [KLHL14]	2.07 ± 0.28	2.53 ± 0.55	–	–
LQAQKEELQSLMHQPKGLEEENAQ [PBXIP1]	5.64 ± 0.29	5.45 ± 0.27	–	–
RTTPSRREITGVQAQPGEATSGPP [PALM]	5.25 ± 0.35	5.2 ± 0.093	–	–
VNRTTRTNSTPLRAACFDGHLEVV [FEM1A]	2.9 ± 0.35	2.74 ± 0.34	–	–
GYPTYKEKVKKRPGGRPEVIYNYV [BTBD10]	2.41 ± 0.16	2.85 ± 0.33	–	–
